In series [1] the target is T1, hMAT2A (Homo sapiens, UniProt P31153, I322V).
T1 construct: gene MAT2A; pNIC28-Bsa4-hMAT2A, His-tagged, E. coli Rosetta 2, Ni-NTA; rows are the I322V mutant
Put plainly: HILIC HPLC of AdoMet analogue formation. To be noted: ATP 1.5 mM, substrate 1.5 mM, MgCl2 3 mM, pH 7.4, 30 °C. It is filed as biochemical.

Substrate in series [2]: C/C1=C\[C@@H](C)C(=O)C[C@@H]([C@H](C)C[C@@H]2CC[C@@H](O)[C@H](O)C2)OC(=O)[C@@H]2CCCCN2C(=O)C(=O)[C@]2(O)O[C@@H](CC[C@H]2C)C[C@H](O)/C(C)=C/C=C/C=C/[C@@H](C)C[C@@H](C)C(=O)[C@H](O)[C@@H]1O
Put plainly: RP-HPLC methyltransferase assay. It is filed as biochemical, Streptomyces hygroscopicus. To be noted: AdoMet 500 µM; BC231 2.5–250 µM.

T1 sequence (P31153 whole entry I322V): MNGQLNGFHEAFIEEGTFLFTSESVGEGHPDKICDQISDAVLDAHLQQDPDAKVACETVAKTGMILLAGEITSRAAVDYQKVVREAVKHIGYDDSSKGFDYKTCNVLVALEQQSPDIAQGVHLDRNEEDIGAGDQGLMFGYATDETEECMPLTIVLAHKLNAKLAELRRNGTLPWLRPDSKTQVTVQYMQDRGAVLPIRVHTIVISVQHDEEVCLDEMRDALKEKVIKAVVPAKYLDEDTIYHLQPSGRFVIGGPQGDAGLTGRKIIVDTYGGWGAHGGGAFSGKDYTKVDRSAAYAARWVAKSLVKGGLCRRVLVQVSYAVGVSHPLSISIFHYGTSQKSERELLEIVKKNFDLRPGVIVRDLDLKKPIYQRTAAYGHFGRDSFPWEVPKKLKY

For `C=CCSCC[C@H](N)C(=O)O` [S-allyl-L-homocysteine], the “HILIC HPLC of AdoMet analogue formation” value in series [1] was “evaluated with L-ethionine and S-allyl-L-homocysteine (Sahc) as substrates”.

B1: RapM (Streptomyces hygroscopicus) (protein)
chain: MIQPDVVTAFTAVRDINLDEPGTPQAETKAATFKSASSSIYDLAASMSAKGQLWNWGVHDSEFVAEIEARLPGFTEYGTDGFSEQLYYLALRDLPKGLESCDGRTVLEVGCGMGEGLNFLSRLVPTARMTGLDLAPKAIASATATLSRGDTLRFVQGDAEELPFEDSSVDVLVNIESSHTYPNLGRFLREAARALRRGGALSHIDVFTRQRLEAMRRITTEIPELKWVSDHDISDQVRAAVRRRMPPDSHLRSTLNKQRMNRLARTLALHSQITVFGGTFADYQPPASVKMLSRLGLVPPMDSLPMETYRHQIAVRV
notes: wild-type rapM in pET28a(+) (NdeI/XhoI), N-terminal His6 tag, E. coli BL21 (DE3), Ni-NTA
With B1, in series [2], the Km (as a rule, the substrate concentration at which the rate is half of its maximum) worked out at 48.9 ± 7.1 µM and the kcat turned out to be 1.47 ± 0.072 min^–1.

The record behind these values is paper PMC5729408, “Site-specific bioalkylation of rapamycin by the RapM 16-O-methyltransferase” (Chemical Science, 2015).
